Target: T1, human MerTK on cells (human, UniProt Q12866 21-999)
T1 sequence: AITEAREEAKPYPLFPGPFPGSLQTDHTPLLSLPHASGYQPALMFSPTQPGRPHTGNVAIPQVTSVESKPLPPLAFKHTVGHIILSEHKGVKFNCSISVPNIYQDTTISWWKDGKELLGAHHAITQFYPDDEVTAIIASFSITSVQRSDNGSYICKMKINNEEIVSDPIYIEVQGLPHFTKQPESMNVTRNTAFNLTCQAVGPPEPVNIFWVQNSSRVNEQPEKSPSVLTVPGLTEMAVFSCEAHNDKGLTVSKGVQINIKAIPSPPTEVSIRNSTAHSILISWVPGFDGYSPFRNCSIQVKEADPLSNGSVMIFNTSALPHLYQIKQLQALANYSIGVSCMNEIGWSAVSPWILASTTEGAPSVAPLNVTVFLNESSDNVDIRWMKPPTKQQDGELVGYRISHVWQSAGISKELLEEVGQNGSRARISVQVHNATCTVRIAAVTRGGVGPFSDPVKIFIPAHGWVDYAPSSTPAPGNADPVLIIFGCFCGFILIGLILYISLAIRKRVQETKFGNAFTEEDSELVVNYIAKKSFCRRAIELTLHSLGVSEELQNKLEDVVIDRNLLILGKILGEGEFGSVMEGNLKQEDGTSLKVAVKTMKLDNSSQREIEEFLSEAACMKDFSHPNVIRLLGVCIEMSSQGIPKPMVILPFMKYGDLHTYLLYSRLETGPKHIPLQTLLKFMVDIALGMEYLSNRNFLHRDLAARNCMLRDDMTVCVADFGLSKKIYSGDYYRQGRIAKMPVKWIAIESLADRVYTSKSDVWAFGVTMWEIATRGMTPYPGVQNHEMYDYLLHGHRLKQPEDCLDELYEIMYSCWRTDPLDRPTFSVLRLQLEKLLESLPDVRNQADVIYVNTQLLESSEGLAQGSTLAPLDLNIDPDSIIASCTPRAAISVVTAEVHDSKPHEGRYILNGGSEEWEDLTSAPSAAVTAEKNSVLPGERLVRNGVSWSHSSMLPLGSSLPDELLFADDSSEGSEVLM
Assay: cell-based or functional assay

- IC50 of blocking of Gas6-mediated pAKT activity in human M2c macrophages (HTRF): 0.531 nM
B1: MTK-22 (antibody, human IgG1, V domains shown)
VH: QVQLQQPGADLVEPGASVKLSCKASGYTFTSYWMHWVKQRPGQGLEWIGEIDPSDSSSNYNQKFKGKATLTVDKSSSTAYMHLNSLTSEDSAVYYCARRYYYGSLYFDNWGQGTTLTVSS
VL: DVVMTQSHKFMSTSVGDRVSITCKASQDVGTAIAWYQQKPGQSPKLLIYWASTRHTGVPDRFTGSRSGTVFTLTISNVQSEDLADYFCQQYTSYPLTFGSGTKLEIK

From patent US20240287204A1 (published 2024)
